B1: Ras-related protein Rab-7L1 (Rattus norvegicus (Rat)), Q63481 (parent)
chain: MGSRDHLFKVLVVGDAAVGKTSLVQRYSQDSFSKHYKSTVGVDFALKVLQWSDSEMVRLQLWDIAGQERFTSMTRLYYRDASACVIMFDVTNATTFSNSQRWKQDLDSKLTLPSGEPVPCLLLANKSDLSPWAVSRDQIDRFSKENGFTGWTETSVKENKNINEAMRVLVEKMMNNSREDIMSSSTQGNYINLQTKPSPGWTCC

Variants of: B1
Settings: with lrrk2_human LRRK2, Q5S007
Chain of lrrk2_human LRRK2, Q5S007 (Q5S007 whole entry): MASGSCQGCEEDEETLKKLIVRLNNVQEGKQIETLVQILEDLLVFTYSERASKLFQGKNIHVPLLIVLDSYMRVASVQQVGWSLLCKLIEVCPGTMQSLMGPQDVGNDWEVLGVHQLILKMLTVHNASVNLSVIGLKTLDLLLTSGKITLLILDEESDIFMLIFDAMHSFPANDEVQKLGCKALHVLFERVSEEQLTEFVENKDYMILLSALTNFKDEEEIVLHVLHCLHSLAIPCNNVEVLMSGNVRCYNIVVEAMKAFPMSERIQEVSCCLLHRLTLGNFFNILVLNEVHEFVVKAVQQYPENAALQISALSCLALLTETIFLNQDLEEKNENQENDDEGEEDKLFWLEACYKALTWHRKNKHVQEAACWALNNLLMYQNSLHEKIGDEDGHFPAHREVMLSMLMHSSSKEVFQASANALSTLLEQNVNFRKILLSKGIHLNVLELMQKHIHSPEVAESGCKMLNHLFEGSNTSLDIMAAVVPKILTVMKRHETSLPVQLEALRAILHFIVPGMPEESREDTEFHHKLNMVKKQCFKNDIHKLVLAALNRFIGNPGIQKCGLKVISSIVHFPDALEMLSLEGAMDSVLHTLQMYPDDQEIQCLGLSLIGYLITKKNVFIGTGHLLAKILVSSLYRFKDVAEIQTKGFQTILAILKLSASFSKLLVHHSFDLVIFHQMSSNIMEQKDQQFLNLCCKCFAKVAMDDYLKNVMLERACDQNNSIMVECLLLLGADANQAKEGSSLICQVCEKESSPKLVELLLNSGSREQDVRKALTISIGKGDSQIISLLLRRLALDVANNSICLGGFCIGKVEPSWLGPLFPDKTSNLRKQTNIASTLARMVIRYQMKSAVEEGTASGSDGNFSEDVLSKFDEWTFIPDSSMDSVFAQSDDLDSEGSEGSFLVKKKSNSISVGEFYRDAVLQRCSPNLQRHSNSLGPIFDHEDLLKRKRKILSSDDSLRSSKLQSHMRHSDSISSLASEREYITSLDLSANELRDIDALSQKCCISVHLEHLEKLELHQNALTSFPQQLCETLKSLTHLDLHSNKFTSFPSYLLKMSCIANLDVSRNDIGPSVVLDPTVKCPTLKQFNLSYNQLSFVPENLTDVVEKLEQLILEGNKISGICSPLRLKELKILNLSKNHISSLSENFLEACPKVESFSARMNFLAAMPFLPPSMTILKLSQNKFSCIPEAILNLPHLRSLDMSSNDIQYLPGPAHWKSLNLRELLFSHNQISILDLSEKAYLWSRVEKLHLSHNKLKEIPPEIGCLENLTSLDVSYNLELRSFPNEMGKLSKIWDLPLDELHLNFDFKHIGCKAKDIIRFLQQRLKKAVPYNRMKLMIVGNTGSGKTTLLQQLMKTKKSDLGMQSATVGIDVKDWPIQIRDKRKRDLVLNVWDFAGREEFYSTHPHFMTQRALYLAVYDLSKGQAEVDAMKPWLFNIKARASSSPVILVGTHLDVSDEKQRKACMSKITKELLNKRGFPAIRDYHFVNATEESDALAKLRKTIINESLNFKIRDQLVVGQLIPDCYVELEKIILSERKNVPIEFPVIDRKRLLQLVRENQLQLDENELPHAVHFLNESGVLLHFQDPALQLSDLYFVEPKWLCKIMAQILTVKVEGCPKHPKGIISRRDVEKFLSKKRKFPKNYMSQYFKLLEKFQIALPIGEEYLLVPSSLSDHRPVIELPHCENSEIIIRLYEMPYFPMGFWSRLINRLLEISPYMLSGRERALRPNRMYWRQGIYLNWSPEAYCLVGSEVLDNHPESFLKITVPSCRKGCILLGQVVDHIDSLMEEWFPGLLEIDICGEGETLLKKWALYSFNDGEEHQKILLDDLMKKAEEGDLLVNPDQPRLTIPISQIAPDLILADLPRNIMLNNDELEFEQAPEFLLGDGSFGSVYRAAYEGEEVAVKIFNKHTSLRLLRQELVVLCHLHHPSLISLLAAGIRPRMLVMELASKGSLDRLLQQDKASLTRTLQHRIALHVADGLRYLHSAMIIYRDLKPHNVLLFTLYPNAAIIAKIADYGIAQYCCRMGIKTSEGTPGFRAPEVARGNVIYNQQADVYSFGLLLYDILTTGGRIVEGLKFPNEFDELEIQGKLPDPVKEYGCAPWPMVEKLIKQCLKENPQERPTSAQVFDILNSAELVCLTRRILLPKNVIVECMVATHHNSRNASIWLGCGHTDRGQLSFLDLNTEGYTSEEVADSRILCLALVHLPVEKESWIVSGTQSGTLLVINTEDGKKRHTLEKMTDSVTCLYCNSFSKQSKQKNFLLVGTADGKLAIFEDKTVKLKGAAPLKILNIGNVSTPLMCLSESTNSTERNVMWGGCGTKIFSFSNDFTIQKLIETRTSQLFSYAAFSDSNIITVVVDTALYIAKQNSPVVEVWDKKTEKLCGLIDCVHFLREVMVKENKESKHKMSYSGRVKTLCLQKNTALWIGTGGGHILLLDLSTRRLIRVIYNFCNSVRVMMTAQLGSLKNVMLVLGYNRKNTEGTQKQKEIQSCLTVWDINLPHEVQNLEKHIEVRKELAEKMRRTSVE

Variant | effect of a mutation on the interaction
T21N | decreasing interaction
Q67L | decreasing interaction

From IntAct's records for PubMed 23395371
